Data reported in the DeepSol protein solubility set.

assay: soluble on expression in E. coli; label from the status in PepcDB or PDB records

| Sequence | soluble on expression in E. coli |
| --- | --- |
| MGSDKIHHHHHHMRSPVPRVAAIHDLSGFGRTSLTVAIPVLSAMGIQVCPMPTAMLSTHTSGFKGFSFIDLTAEMRRFFDHWKSLNIRFDAIYSGFLGSPDQVAIVAQCIDMFRTPDGFAVVDPVLGDNGELEPTMDMEMVHRMRWLVSKADIITPNFTEAALLLDEPYREHIDQPTLKDWLRRLTAMGPHVAVVTSVPVEGSRTTTSVVAYNRPHDRFWKVDCQYIPAHYPGTGDTFASVLTGSILQGDSLPIAIERAVQFVTMGIRATFGHNSPSREGILLERVLDTLRAPVTMSSYELLEE | not soluble |
| MGSDKIHHHHHHMRSTDRLLFIDFLLKFENKNGTVIPCCVDNFDCTFTHKGGKSMYEKERKELYNAHLLLEKYGLVAYTSGNVSVRIGDHVLIKPSGVPYTELKPEDFVVVDLEGNVIEGEKKPSVDTATHLYLYKHLDWAKSVIHTHSTFAMVWAILEKSIPVLCTAHADVFGEEIPLTEYAPVGSEAIGKAVVKVIGKSGAVLLRKHGVMIVGTSVDDAVKKAIFLEEVAKAAYFATLAGKPTPLPPDEVDHLYNQYHTKYGQK | not soluble |
| MGSDKIHHHHHHMRVNSQSNHDVSPAPSGVVLEAADPAELLVRAQKTLGLLSPLLSPLAQAFHDRGHRLYLVGGSVRDALLDELGHDLDCTTDARPEVVSAILEEYAPVVWDTGIEFGTVSAEKDGQQIEITTFRSDVYDGQSRNPEVQFGDTLEGDLIRRDFTVNAMAMEILPDGSMQFHDPVGGMNDLVAGLLDTPATPQQSFNDDPLRMLRAARFVSQLGFDLAPRVRHAMTEMADQITRITAERVQVELDKMICGKVPWDGIDVMVDTGLADIIYPEISALRLTQDEHHQHKDVYAHSLTVLRQAMDQEEDGPDVVLRWAALMHDCGKPDTREFSPEGRVSFHQHEIVGARLMRHRMRALKYSKHTIRDVSELIRLHMRFHGFSEGEWTDSAVRRYVTDAGDLLPRLHKLVRADCTTRNKKKAERLQKTYDHLEDRIADIAAKEDLAKVRPDLDGNEIMEILDIKAGPQVGQAWKFLKELRLERGPLEREDAILELKKWWYEQ | not soluble |
| MGSDKIHHHHHHMRYLSKDILEEVITQRPSDSYKSNFGRVVLIGGNRQYGGAIIMSTEACINSGAGLTTVITDVKNHGPLHARCPEAMVVGFEETVLLTNVVEQADVILIGPGLGLDATAQQILKMVLAQHQKQQWLIIDGSAITLFSQGNFSLTYPEKVVFTPHQMEWQRLSHLPIEQQTLANNQRQQAKLGSTIVLKSHRTTIFHAGEPFQNTGGNPGMATGGTGDTLAGIIAGFLAQFKPTIETIAGAVYLHSLIGDDLAKTDYVVLPTKISQALPTYMKKYAQPHTAPDSELLEQKRSR | not soluble |
| MGSDKIHHHHHHMSCKAFQGQTLREHIEAMLAAWEIVKNKYIPSIIRVMKTVGVKFTEEDADKFMKTLIILHDVGKCSEVYQKHLSNNEPLRGFRHELVSAYYAYNILKDMFKDETIAFIGALVVMMHHEPILMGQIRSLDKEELTPEVVLDKLRTFNGVMEGTESFIKSMIKEKLGVIPKVPSPTQEDVLREVIRLSVLARHRPDSGKLRMVVGALLIPLVLCDYKGAKEREGESPKFAEVLRVEMMK | not soluble |
| MGSDKIHHHHHHMSDEGRHKPTSAPNRVFMMKGMDKLRYQQDFLNIRPIFTAGEQEYLTGLSDRLPLSVLTGSVRNIEEIGIDFVYSSAKLEGNTYNQYDTQALLKLGQTAGGKLYSDAVMLINLRESYRHLLSGLDSPEPFDWLDFLKTTHSLISENLLEKGSGGVVRRDSVTISGTDYTPLSNPQSLDTELKWLLQEAPKIENPFDRAVYLHNNLAYLQYFKDCNKRTARNCMTLSLMRSGFFPCVFSPDSYPAYAEAVVAYYETGDYGLFKKYFISAYENTVNKYGPQPDMDIFRNFSL | not soluble |
| MGSDKIHHHHHHMSDNLPKKQPRTAPPEARREQLIDATITAISTYGLSGTTLAKVTAEAGLSLGLVNFHFKSKEALLTATLTHLADEHRALWFTRSSQPDVSAADKLKLIVDAQFHAKICNRRKLSVWFAFFGESRPRKAYRELTGPLDEERQIATSRLCADIIAEGGYSGIDSDTVSAMLESLFDGFWLNILMYPDRFTRQSAKAQVLSYLRLCFPQHFTCLDAETFA | not soluble |
| MGSDKIHHHHHHMSDQRYNLRGVSASKEDVHNAIKNIDKGIFPKAFCKIIPDILGGDPEYCNIMHADGAGTKSSLAYMYWKETGDLSVWKGIAQDALIMNIDDLLCVGAVDNILVSSTIGRNKLLVPGEVISAIINGTDELLAELREMGVGCYATGGETADVGDLVRTIIVDSTVTCRMKRSDVIDNKNIQGGDVIVGLASSGQATYEKEYNGGMGSNGLTSARHDVFSKYLAKKYPESYDAAVPKELVYSGGLKLTDKIEELGIDAGKMVLSPTRTYAPVIKVLLDKLRSQIHGMVHCSGGAQTKVMHFVENKRVTKDNLFPIPPLFRTIQEQSGTDWSEMYKVFNMGHRMEIYIAPEHAEEVIGISKSFGIDAQIVGFVEEADKNELIIESEKGRFTY | not soluble |
| MGSDKIHHHHHHMSEENKIGTYQFVAEPFHVDFNGRLTMGVLGNHLLNCAGFHASDRGFGIATLNEDNYTWVLSRLAIELDEMPYQYEKFSVQTWVENVYRLFTDRNFAVIDKDGKKIGYARSVWAMINLNTRKPADLLALHGGSIVDYICDEPCPIEKPSRIKVTSNQPVATLTAKYSDIDINGHVNSIRYIEHILDLFPIELYQTKRIRRFEMAYVAESYFGDELSFFCDEVSENEFHVEVKKNGSEVVCRSKVIFE | not soluble |
| MGSDKIHHHHHHMSEKLWEKGYKVNEEVEKFTVGDDYITDMKIIEYDIKASIVHSRMLHKIGLLSAEEQKKIEEALSELLNLVKEGKFQIKPEEEDCHTAIENFLVKKLGEIGKKIHTARSRNDQVLTALRLMYKEELKEIENLIRELQKSLERFIEKFGDVKFPGYTHTRKAMPTDFATWAGALKDALEDDLKLLKTAYEIVDQSPLGTGAGYGVPIDIDREFTAKELGFSKVQWNPIYTQNSRGKFEYLILHTLSQISYDLNRFASDIIFFSLPEIGYLKLPKELCTGSSIMPHKINPDPLELVRAHHHTIVSKMLMAVTLPSNLIFGYHRDFQLLKKPVIEAFEVVKNIVRIMKIIFDHLEVDKERSESSITEEVLATHRVYELVKQGVPFRDAYRMVAEKYGREKD | not soluble |
| MGSDKIHHHHHHMSELTLLADADERGRRYLAGNAQRRVFPDADALSALARFNEALPQQGFSPEDTLTLLDEVGSPATTASNGPNYFGFVIGAALPIAAASERLMIAWDQCASTFDNSPVSATLERLASRWVLDILKLPKESAVGFGTSATACTLSCLVAARRAMLAKQGWDFDNDGLIGAPEIKVVISALTHITVKKALRVLGFGLRHIIVAPVNAFGQIDVTQLPPLDDRTILCLQAGEVNTGEFDDFAQIIPIAKAAGAWVHVDGAFGLWARASSHAALTESIELADSWTTDAHKWLNTPYDCAMAICRNADALAEAMNADAVYSSAARDAQKNLTLEFSRRPRGIPVWAVLRTLGRDGVAEMIERHCRQATLIADGLRHAGFEVLNRVVLNQVLLRGETDSQTTAIREALQASGKAWFGGTVWQGRPALRISVSSWRTQDDNVQALIALLTEIKAKTPR | not soluble |
| MGSDKIHHHHHHMSEVSKWPAINPFHWGYNGTVSHIVGENGSIKLHLKDNKEQVDFDEFANKYVPTLKNGAQFKLSPYLFTGILQTLYLGAADFSKKFPVFYGREIVKFSDGGVCTADWLIDSWKKDYEFDQSTTSFDKKKFDKDEKATHPEGWPRLQPRTRYLKDNELEELREVDLPLVVILHGLAGGSHEPIIRSLAENLSRSGRFQVVVLNTRGCARSKITTRNLFTAYHTMDIREFLQREKQRHPDRKLYAVGCSFGATMLANYLGEEGDKSPLSAAATLCNPWDLLLSAIRMSQDWWSRTLFSKNIAQFLTRTVQVNMGELGVPNGSLPDHPPTVKNPSFYMFTPENLIKAKSFKSTREFDEVYTAPALGFPNAMEYYKAASSINRVDTIRVPTLVINSRDDPVVGPDQPYSIVEKNPRILYCRTDLGGHLAYLDKDNNSWATKAIAEFFTKFDELVV | not soluble |
| MGSDKIHHHHHHMSEYIQLYRYLNSRLPGVERKRLVLLTGARQTGKTTLAKAKYADLRYVNLDAPENREAVRTIASAFWARDIGPAVLDEAQKEPVVFDKVKYAYDDGALSFSVLLGSSQILLLKKIRETLAGRISIYELWPLLMSEICNGSAAPPSSPPLVDCLFSDMTCDDFFGDKPGILLDMEDACRRRAEEHLLQWGGMPSLLPLNTEERRQWLKDYGYTYLERDMADLARLEDLMPFRKFQRLAALRSGCLLNYSELARDAAISVDTARRYLEYLRLSYQTVFLPPYHVNLTSAVVKTPKVYWLDVGLLRQLSGMQGPTTGEIYETMVVGELMKWMKTAGREGDVFFYRTRSGLEVDVLLETPSGVVGMEIKSRRVLAARDLTGLKEIALALGPRWRGGLVIYQGDELKRIGTPQLWAVPSRRLFTGIE | not soluble |
| MGSDKIHHHHHHMSGFSPELIDYLEGKISFEEFERRREERKTREKKSLQEKGKLSAEENPDDSEVPSSSGINSTKSQDKDVSEGETSDGVRKSVHKVFASMLGENEDDEEEEEEEEEEEEEEETPEQPTAGDVFVLEMVLNRETKKMMKEKRPRSKLPRALRGLMGEANIRFARGEREEAILMCMEIIRQAPLAYEPFSTLAMIYEDQGDMEKSLQFELIAAHLNPSDTEEWVRLAEMSLEQDNIKQAIFCYTKALKYEPTNVRYLWERSSLYEQMGDHKMAMDGYRRILNLLSPSDGERFMQLARDMAKSYYEANDVTSAINIIDEAFSKHQGLVSMEDVNIAAELYISNKQYDKALEIITDFSGIVLEKKTSEEGTSEENKAPENVTCTIPDGVPIDITVKLMVCLVHLNILEPLNPLLTTLVEQNPEDMGDLYLDVAEAFLDVGEYNSALPLLSALVCSERYNLAVVWLRHAECLKALGYMERAAESYGKVVDLAPLHLDARISLSTLQQQLGQPEKALEALEPMYDPDTLAQDANAAQQELKLLLHRSTLLFSQGKMYGYVDTLLTMLAMLLKVAMNRAQVCLISSSKSGERHLYLIKVSRDKISDSNDQESANCDAKAIFAVLTSVLTKDDWWNLLLKAIYSLCDLSRFQEAELLVDSSLEYYSFYDDRQKRKELEYFGLSAAILDKNFRKAYNYIRIMVMENVNKPQLWNIFNQVTMHSQDVRHHRFCLRLMLKNPENHALCVLNGHNAFVSGSFKHALGQYVQAFRTHPDEPLYSFCIGLTFIHMASQKYVLRRHALIVQGFSFLNRYLSLRGPCQESFYNLGRGLHQLGLIHLAIHYYQKALELPPLVVEGIELDQLDLRRDIAYNLSLIYQSSGNTGMAQTLLYTYCSI | not soluble |
| MGSDKIHHHHHHMSGGDAMAKAVKQPAPDAEQIVLAIDIGGSHVKILTSAGGAERRDDSGPDLTPQQMIDKVKKLAEGLSYDVISMGYPGPVRHNKPVLDPKNLGKGWAGFDFAAQFGKPVKVVNDALMQAIGSYEGGRMLFLGLGTGLGAAMVFDNVGQPMELAHLPYRKGRSFEDYVGERGLEKRGKKKWRKYVFDVVTRLRAALQPDYVVIGGGNVDKLDALPAEARRGDNTRAFEGGFRLWRDKALIV | not soluble |
| MGSDKIHHHHHHMSGKGAEYWTKRISEQEMPALSSTVKTLEKLAKDDVSSLAILGRSVMHDNALTSRILKVANSAIYNKGISHVTTVSRAAVVLGFDTIRNICITAKLLSSLLENKGLSEPVYHRLLTLMARAFQAAMLAKMMLKDHDEELQEEVFIAALLYHLGESAFWSMGGETTEQLDARLNQVDEKDANNVVREVLGTSFTQLSMGIAKNWGLGEVLVKSLSNPNERTPEIRSIYLANKISELMASDSKDIAELNHRIKQAADMLDLEVDEFKGRMIQCSHATRKLADTYGAKVLVAFLPDTHQLTLAAEPEAEPIKVREFNVDLQLKKLRELTDCAINKANFNEVITITLSGLLDGIGMDRCAVMLLSPNRKRLQPRVVLGENGDKMKNEFIVELNHDKNVFAESVDLKKPLFIDNPSSEKWRLYTDEELRRHTSVMGFMLAPILVDNKVIGLLYADRHSSERKLAEVDFERFTHFAQLTNLCLSVSVH | not soluble |
